Assay results as given in patent US20220195015A1 (published 2022).

Biological target: SARS-CoV-2 receptor binding domain (RBD), wild type (SARS-CoV-2, UniProt P0DTC2 319-539)
Experiment: ELISA, RBD protein coated, mAb titrated

B1: C085 (antibody, V domains shown)
VH: QVQLQESGPGLVKPSETLSLTCTVSGDSMSSYFWTWIRQPPGKGLECIGYFYPSGSTNYNPSLKSRVTISIDTSKNQFSLKLSSVTAADTAVYYCARLKQQLVGFGWFDPWGQGTLVTVSS
VL: QSVLTQPPSVSGAPGQRVTISCTGSSSNIGADYDVHWYQQFPGTAPKVLIYANTNRPSGVPERFSGSKSGTSASLAITGLQAEDEADYYCQSYDHSLNWVFGGGTKLTVL
- EC50: 2.38 ng/mL

B2: C086 (antibody, V domains shown)
VH: QVQLQESGPGLVKPSETLSLTCTVSGDSISTYFWAWIRQPPGRGLECIGSFFPSGSTYYNPSLKSRVTISVDTSKNQFSLKLNSVTAADTAVYYCARLKQQLVGFGWFDPWGQGSLVTVSS
VL: QSVLTQPPSVSGAPGQRVTISCTGSISNIGADYEVHWYVQFPGTAPKVLIYANTNRPSGVPERFSASKSGTSASLAITGLQAEDEADYYCQSYDHRLHWVFGGGTKLTVL
- EC50: 3.01 ng/mL

B3: C518 (antibody, V domains shown)
VH: EVQLVESGGGLIQPGGSLRLSCAASGITVSSNYMSWVRQAPGKGLEWVSVMYAGGSSFYADSVKGRFTISRDNSKNTLYLQMNSLRVEDTAVYYCARDLIALGVDVWGQGTTVTVSS
VL: DIQLTQSPSFLSASVGDRVTITCRASQGISSYLAWYQQKPGKAPKLLIYAASTLQSGVPSRFSGSGSGTEFTLTISSLQPEDFATYYCQLLNSYPMCSFGQGTKLEIK
- EC50: 1.13 ng/mL

B4: C519 (antibody, V domains shown)
VH: QVQLQESGPGLVKPSETLSLTCAVSGGSISSYYWSWIRQPPGKGLEWIGYIDTSGSTNYNPSLKSRVTMSVDTSKNQFSLNVNSVTAADTAVYFCGVCAGDCYAASVFDYRGQGTLVTVSS
VL: DIQMTQSPSSLSASVGDRVTITCQASQDIIFYLNWYQQKPGKAPKLLIYDASNLKTGVPSRFSGSGSGTDFAFTISSLQPEDIATYYCQQYDNLPLTFGGGTKVEIK
- EC50: 1.06 ng/mL

B5: C063 (antibody, V domains shown)
VH: EVQLVQSGAEVKKPGDSLKISCKASGYSFTRYWIGWVRQMPGKGLDWMGIIYPGDSDTRYSSSFQGQVTISADKSISTAYLQWSSLKASDTSLYYCVRRASSTNFEFWGQGTLVTVSS
VL: SYELTQPPSVSVAPGQTATITCGGNNIGSKTVHWYQQKPGQAPVVVVYDDSDRPSGIPERFSGSKSGSTATLTITRVEAGDEADYYCQVWDSTSDHYVFGTGTKVAVI
- EC50: 414 ng/mL

B6: C064 (antibody, V domains shown)
VH: EVQLLESGGDLVQPGGSLRLSCAASGFTFSNYAMSWVRQAPGKGLEWVSAISGSGGNTYYADSVKGRFTISRDNSKNTLYLQMNSLRAEDTAVYYCAKAVHYGGNSDRRFSEPSAPFDYWGQGTLVTVSS
VL: QSALTQPASVSGSPGQSITISCTGTSSDVGSYNLVSWYQQHPGKAPKLMIYEGSKRPSGVSNRFSGSKSGNTASLTISGLQAEDEADYYCCSYAGSSTPYVFGTGTKVTVL
- EC50: 363 ng/mL

B7: C065 (antibody, V domains shown)
VH: QVQLQESGPGLVKPSQTLSLTCTVSGGSISSSNYYWSWIRQHPGKGLEWIGYIDYSGGTYYNPSLKSRVTISVDTSKNQFSLKLSSVTAADTAVYYCARVSTTVTTYLVGGFDIWGQGTMVTVSS
VL: IRMTQSPSSLSASVGDRVTITCQASQDITNYLNWYQQKPGKAPKLLLYDASNLETGVPSRFSGSGSGTDFTFTISSLQPEDIATYYCQQYDNLPWTFGQGTKVEIK
- EC50: 29.1 ng/mL

B8: C066 (antibody, V domains shown)
VH: EVQLVESGGGLIQPGGSLRLSCAASGLLVSRNYMTWVRQAPGKGLEWVSVIYSGGSTFYADSVRGRFTISRDNSKNTLYLQMDSLRAEDTAVYYCARDVGDYYGMDVWGQGTTVTVSS
VL: DIQLTQSPAFLSASVGDRVTITCRASQGMSNYLAWYQQKPGKAPNLLIYTASTLQSGVPSRFSGSGSGTEFTLTISSLQPEDFATYYCQLLNSYPQLTFGGGTKVEIK
- EC50: 4.2 ng/mL

B9: C067 (antibody, V domains shown)
VH: VQLVESGGGVVQPGRSLRLSCAASGFSFRIFGMNWVRQAPGKGLDWVAGISHDGSDKYFADSVKGRFTISRDNSKNTLYLQMNSLRADDTAVYYCARDMEVDYYDRSGHYHVFHAFDIWGQGTMVTVSS
VL: DIVMTQSPDSLAVSLGARATINCKSSQSILYSSDNKSSLAWYQQKPGHPPKLLIYWASTRESGVPDRFSGSESGTDFTLTISNLQGEDVAVYYCQQYYSIPRSFGQGTKLEIK
- EC50: 6.98 ng/mL

B10: C068 (antibody, V domains shown)
VH: QVQLVESGGGVVQPGRSLRLSCVASGFSFSTYGMHWVRQAPGKGLEWVALIWSDGSNKYYGDAAEGRFTISRDNSNNTLYLQMNNLRAEDTALYYCARDHSSSSFVYYYYMDVWGKGTTVTVSS
VL: QSALTQPRSVSGSPGQSVTISCTGTSSDIGGYNYVSWYQQHPDKAPKFIIFDVSKRPSGVPDRFSGSKSGNTASLTISGLQAEDEADYYCCSYAGPYPYVFGTGTKVTVL
- EC50: 5.46 ng/mL

B11: C069 (antibody, V domains shown)
VH: QVQLVQSGAEVKKPGSSVNVSCKASGGTFSTYAIHWVRQAPGQGLEWMGGIIPLFHTANYAQKFQGRVTITADESTSTAYMELSSLRSEDTAMYYCAINTQWDLVPRWGRGTLVTVSS
VL: EIVLTQSPGTLSLAPGERATLSCRASQSVNSNYLAWYQQKPGQAPRLLIYGASSRATGIPDRFSGSGSGTDFTLTISRLEPEDFAVYYCQQYGFSLYSFGQGTKLEIK
- EC50: 381 ng/mL

B12: C083 (antibody, V domains shown)
VH: EVQLVESGGGLVKPGGSLRLSCAASGFTFSSYSMNWVRQAPGKGLEWVSSISSSTSYIYYADSVKGRFTISRDNAKNSLYLQMNSLRAEDTAVYYCARERYGDNWGQGTLVTVSS
VL: QLVLTQSPSASASLGASVKLTCTLSSGHSSYAIAWHQQQPEKGPRYLMSLNSDGSHSKGDGIPDRFSGSSSGAERYLTISSLQSEDEADYYCQTWGPWVFGGGTKLTVL
- EC50: 25.1 ng/mL

B13: C088 (antibody, V domains shown)
VH: QVQLVQSGAEAKKPGASVKVSCKTSGYTFTNYFMHWVRQAPGQGPEWMGIIDSSDGGASYAQKFQGRVTMTRDTSTSTVYMELRSLKFEDTAVYYCARASTSTTSWSDALSLGSWGQGTLVTVSS
VL: QSVLTQPPSVSGAPGQRVTISCTGSSSNIGGGSVVHWYQQLPGTAPKLLIYANSNRPSGVPDRFSGSKSGTSASLAIAGLQAEDEADYYCQSWDNGLSASGVVFGGGTKLTVL
- EC50: 2.44 ng/mL

B14: C032 (antibody, V domains shown)
VH: EVQLVQSGAEVKKPGESLKISCKGSGYSFTSYWIGWVRQMPGKGLEWMGIIYPGDSDTRYSPSFQGQVTISADKSISTAYLQWSSLKASDTAMYYCARGVAVDWYFDLWGRGTLVTVSS
VL: QSVLTQPPSVSGAPGQRVTISCTGSSSNIGAGYDVHWYQQLPGTAPKLLIYGNSNRPSGVPDRFSGSKSGTSASLAITGLQAEDEADYYCQSYDSSLSALYVFGTGTKVTVL
- EC50: 17.3 ng/mL

B15: C080 (antibody, V domains shown)
VH: EVQLVQSGAEVKKPGESLNISCKASGYSFTIYWIAWVRQLPGKGLEWMGIIYPGDSDTRYSPSFQGQVTISADKSISTAYLQWRSLKASDSAVYYCARGVAVDWYFDLWGRGTLVTVSS
VL: QSVLTQPPSVSGAPGQRVTISCAGSSSNIGAGFDVYWYQQLPGTAPKLLIYGNNNRPSGVPDRFSGSKSGTSASLAITGLQAEDEADYYCQSSGSVLSDLYVFGTGTKVTVL
- EC50: 1.97 ng/mL

B16: C094 (antibody, V domains shown)
VH: QVQLQESGPGLVKPSETLSLTCNVSGVSISTDYWSWIRQPPGKGLEWIGYIYYSGNTKDYNPSLKSRVTISVDTSKNQFSLMLSSVTAADTAVYYCARHYDILTSLSWFDPWGQGTLVTVSS
VL: QSVLTQPPSVSAAPGQKVTISCSITNSNLGNIYVSWYQQLPGTAPKLLIYGNNKRPSGIPDRFSGSKSGTSATLGITGLQTGDEAHYYCGTWDSSLSANWVFGGGTKLTVL
- EC50: 1.67 ng/mL

B17: C091 (antibody, V domains shown)
VH: QVQLVQSGAEVKKPGSSVKVSCKASGGTFSSYTISWVRQAPGQGLEWMGRIIPILGIANYAQKFQGRVTITADKSTSTAYMELSSLRSEDTAVYYCARDSGYSGYGSTYYMDVWGKGTTVTVSS
VL: QSVLTQPPSVSGAPGQRVTISCTGSSSNIGAGYDVHWYQQLPGTAPKLLIYGNSNRPSGVPDRFSGSKSGTSASLAITGLQAEDEADYYCQSYDSSLSGSVFGTVTKVTVL
- EC50: 89.5 ng/mL

B18: C092 (antibody, V domains shown)
VH: QVQLVQSGAEVKKPGSSVKVSCKASGGSFTNHFISWVRQAPGQGLEWMGRIIPILGTANYAQNFQGRVMMTADKSTSTAYMELSSLRSEDTAVYYCARDSGYSGYGSTYYMDVWGKGTTVTVSS
VL: QSVLTQPPSVSGAPGQRVTISCTGSNSNIGAGYDVHWYQQLPGAAPKLLIYGNNNRPSGVPDRFSGSKSDTSASLAITGLQVEDEADYYCQSYDSSLSDSVFGSGTKVTVL
- EC50: 7.07 ng/mL

B19: C521 (antibody, V domains shown)
VH: EVQLVESGGGLVRPGGSLTLSCVASGFTVGSNFMSWVRQAPGKGLEWVSLIYNSGGTHYADSVKGRFTISRDRSKNTLYLQMNSLRAEDTAIYYCANHGYYYYMDVWGKGTTVTVS
VL: QSALTQPASVSGSPGQSITISCTGTGSDIGAYNYVSWHQHHPGKAPKLIIYDVSNRPSGVSNRFSGSKSGNTASLTISGLQAEDEADYYCTSYTNTTTPWVFGGGTKVTVL
- EC50: 6.9 ng/mL

B20: C522 (antibody, V domains shown)
VH: EVQLVESGGGLIQPGGSLRLSCAASEFIVSRNYMSWVRQAPGKGLEWVSVIYSGGSTFYADSVKGRFTISRDESKNTLYLQMNSLRAEDTAIYYCARDRGGGILDYWGQGTLVTVS
VL: DIQMTQSPSSLSASVGDRVTITCQASQDINIFLNWYQQKPGKAPKLLIYDASSLETGVPSRFSGSGSGTDFTFTISSLQPEDFATYYCQQYGNLPKYTFGQGTKLEIK
- EC50: 0.93 ng/mL

B21: C035 (antibody, V domains shown)
VH: EVQLVESGGGLVQPGGSLRLSCAASGFIFSSYWMTWVRQAPGKGLEWVASIKYNGNERNYVDSVKGRFTISRDNARNSLFLQLNNLGAEDTAVYYCARQPESTIWYYFDYWGQGTLVTVSS
VL: SYELTQPPSVSVSPGQTARVTCSGHALPDQYTYWYQQRPGRAPVLVIYVNNQRPSGIPDRFSATTSGTTVTLTISGVQAEDEADYYCQSADSSGSYVVFGGGTKLTVL
- EC50: 15.2 ng/mL
